Experimental data as given in article PMC5972581 (2018).
Values belong to the binder of their own block, whether it stands above or below them.

Biological target: T1, GST-OsPGL1^46-604 (rice (Oryza sativa), UniProt B7EDM4)
T1 chain: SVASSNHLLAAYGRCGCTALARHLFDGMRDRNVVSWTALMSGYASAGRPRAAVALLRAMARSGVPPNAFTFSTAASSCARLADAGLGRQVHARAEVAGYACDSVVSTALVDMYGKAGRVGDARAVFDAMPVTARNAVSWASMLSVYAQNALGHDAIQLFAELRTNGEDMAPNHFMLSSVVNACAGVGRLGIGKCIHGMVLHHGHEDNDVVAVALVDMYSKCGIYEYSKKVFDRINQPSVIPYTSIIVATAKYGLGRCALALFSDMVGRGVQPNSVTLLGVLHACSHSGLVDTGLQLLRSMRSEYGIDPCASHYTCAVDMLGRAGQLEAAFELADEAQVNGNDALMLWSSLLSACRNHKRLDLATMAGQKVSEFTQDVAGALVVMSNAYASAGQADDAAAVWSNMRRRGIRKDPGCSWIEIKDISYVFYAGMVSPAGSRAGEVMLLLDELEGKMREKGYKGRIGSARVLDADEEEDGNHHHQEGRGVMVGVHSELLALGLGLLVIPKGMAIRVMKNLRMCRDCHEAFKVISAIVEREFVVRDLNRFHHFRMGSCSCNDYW
Test: GST pull-down

binding result: binds
B1: Trx-OsMORF9-His (protein)
chain: MASFPTTAAAAAAQAFAFALAPKPSSSAAAPSALFPRTAAAAAFPTLAVRGSGKARQPVVAAAAGAGTGSEQRETILLPGCDYNHWLIVMEFPKDPAPTREQMIDTYLNTLATVLGSMEEAKKNMYAFSTTTYTGFQCTVDEETSEKFKGLPGVLWVLPDSYIDVKNKDYGGDKYINGEIIPCTYPTYQPKERRTSKYESRRYERRRDGPPASRRPRPQTAQPESASSS

binding result: binds
B2: Trx-OsMORF8-His (protein)
chain: MASASRFLLLSRLPAAAASSTSRLLRPLSAAGSLLPAALAPSAPRAAAAAARCFATQPATSSLRDSSPNWSNRPPKETILLDGCDFEHWLVVVEPPPGDPSNPEPTRDEIIDGYIKTLAQVVGSEEEARHKIYSVSTRHYFAFGALVSEELSYKLKELPKVRWVLPDSYLDVRNKDYGGEPFINGEAVPYDPKYHEEWVRNNARANERSRRNDRPRNFDRSRNFERRRENMQNFQNRDVPPGQGFNSPPPPGQGPVPPRDAPPMHHAQGNVPPPPPPNAGPPNYQPHAPNPQGYTNYQQGGAPGYQGGPPGYQGSNQGYQGPPPPPPSAYQGNNPGYQGGGPGYQGGNPPPYQGGNPGYAPGYHGQGGNPSYQQGGDNYNAGVPAYERDGQGRNYQ
